The test system of the series is ATP. Kind of series: switch fluorescence ratio, 500 uM ATP over buffer (Cy3 cluster intensity, sum of 5 cycles each) (fold (ratio)); higher = stronger signal-on switching upon ATP binding; sequences stand for … in TCGTCGGCAGCGTCAGATGTGTATAAGAGACAGTTTTTTTTTTTTTTTTTTTTTTTTT…TC. The conditions noted are these: aptamer strand: ATP DNA aptamer (quencher-CACCTGGGGGAGTATTGCGGAGGAAGG + anchor), 100 nM annealed; ATP concentration: 500 uM. An outline of the steps:
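Cy3-labelled switching-strand clusters on a modified Illumina MiSeq flow-cell were annealed to 100 nM quencher-labelled ATP aptamer, imaged in selection buffer, then imaged after 15 min with 500 uM ATP at 22 °C. Five buffer/ATP cycles ran, with NaOH stripping and re-annealing between them. The fluorescence ratio is summed target-cycle over summed buffer-cycle Cy3 intensity per cluster, averaged per switch-domain sequence. Clusters outside 100-1000 RFU were excluded.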

± gives the standard deviation of the averaged measurements.
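Also: ATP exposure 15 min at 22 °C before imaging.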

For TGAGTCTAG, the switch fluorescence ratio amounted to 0.997 ± 0.038. Under TGAGTCTTAA stands 1.01 ± 0.027. Under TGAGTGATTG stands 1.04 ± 0.052; under TGAGTGCAAA, 0.9933 ± 0.0023.

On to TGAGTGCCTA, for which the switch fluorescence ratio amounted to 0.973 ± 0.047. On to TGAGTGCTGT, for which the switch fluorescence ratio worked out at 0.968 ± 0.02. With TGAGTGGGAG the figure was 0.998 ± 0.021. Take TGAGTGGGTT: the switch fluorescence ratio is 0.975 ± 0.031. Consider TGAGTGTGAG, for which the switch fluorescence ratio was determined as 0.985 ± 0.035. For the sequence TGAGTTAAGG, the switch fluorescence ratio turned out to be 0.986 ± 0.012. Under TGAGTTAGAG stands 1.02 ± 0.026; under TGAGTTAGTT, 1.01 ± 0.016; under TGAGTTATGG, 0.968 ± 0.03.

As for TGAGTTGACT, the switch fluorescence ratio came to 1 ± 0.015. As for TGAGTTGATT, the switch fluorescence ratio was found to be 1.01 ± 0.069. Under TGATAAAGTT stands 1.03 ± 0.034; under TGATAACTGG, 0.9745 ± 0.0064. With TGATAATAGG, the switch fluorescence ratio worked out at 0.989 ± 0.021.

Turning to TGATAATGGG, the switch fluorescence ratio amounted to 0.982 ± 0.036. Under TGATACTGCT stands 0.961 ± 0.035. With TGATAGGTGG the figure was 1 ± 0.028; with TGATATGTGG, 1.01 ± 0.038; with TGATATGTTT, 1.006 ± 0.002. For TGATATTCGA, the switch fluorescence ratio was 0.997 ± 0.012. With TGATATTTTG the figure was 1 ± 0.016. As for TGATCAAGTG, the switch fluorescence ratio is 0.99 ± 0.049. With TGATCGGATA the figure was 1 ± 0.04; with TGATGATCC, 1.01 ± 0.042; with TGATGATGGG, 0.985 ± 0.038. Under TGATGCAGTT stands 1.01 ± 0.018; under TGATGCCGAA, 1.022 ± 0.0034.

For TGATGCTGTA, the switch fluorescence ratio was found to be 0.977 ± 0.063. With TGATGGACGG the figure was 1 ± 0.022; with TGATGGAGGG, 0.997 ± 0.026. With TGATGGGAGC the figure was 0.982 ± 0.014; with TGATGGGGG, 0.981 ± 0.016. Take TGATGGGGTC: the switch fluorescence ratio is 0.991 ± 0.013. Under TGATGTCTAG stands 0.967 ± 0.021; under TGATGTTAGA, 1.003 ± 0.009. Under TGATGTTTTT stands 1.01 ± 0.024. With TGATTAATGA the figure was 0.996 ± 0.034. As to TGATTAATTT, the switch fluorescence ratio was found to be 0.984 ± 0.011.

Take TGATTACTCA: the switch fluorescence ratio amounted to 1.03 ± 0.021. With TGATTAGGGC the figure was 1.01 ± 0.017. Regarding TGATTATGGA, the switch fluorescence ratio was determined as 0.995 ± 0.045. As for TGATTATTTT, the switch fluorescence ratio amounted to 0.991 ± 0.016.

Regarding TGATTCAGAG, the switch fluorescence ratio was 0.992 ± 0.029. Under TGATTCATGA stands 0.925 ± 0.033; under TGATTCATTG, 1.034 ± 0.01. With TGATTCCGGT the figure was 0.992 ± 0.013. With TGATTCGGCG the figure was 1.03 ± 0.069; with TGATTCGTAC, 1.03 ± 0.028.

For the sequence TGATTCTCTT, the switch fluorescence ratio was 1 ± 0.027. Under TGATTCTGTG stands 1.02 ± 0.03. Under TGATTGAGAG stands 1.016 ± 0.0025. On to TGATTGGGGT, for which the switch fluorescence ratio was determined as 1.01 ± 0.024. With TGATTGGTGG the figure was 1.01 ± 0.041; with TGATTGGTTC, 0.9788 ± 0.0029; with TGATTGTACT, 1 ± 0.02.

Regarding TGATTGTTAT, the switch fluorescence ratio worked out at 1.029 ± 0.0016. With TGATTTCATT, the switch fluorescence ratio turned out to be 1.02 ± 0.048. In the case of TGATTTGGTT, the switch fluorescence ratio worked out at 0.9903 ± 0.0083. Turning to TGATTTTCGG, the switch fluorescence ratio is 0.974 ± 0.032.

For the sequence TGATTTTTTT, the switch fluorescence ratio worked out at 1.01 ± 0.031. For the sequence TGCAAAAAAT, the switch fluorescence ratio stood at 1.02 ± 0.011.

On to TGCAAAGAGC, for which the switch fluorescence ratio came to 0.9824 ± 0.0073.

As to TGCAACGTAT, the switch fluorescence ratio worked out at 1.13 ± 0.19. Take TGCAAGGGAG: the switch fluorescence ratio stood at 1.0133 ± 0.00021.

Consider TGCAATAGGG, for which the switch fluorescence ratio came out at 1.35 ± 0.12.

Regarding TGCAATATAT, the switch fluorescence ratio amounted to 1.14 ± 0.01. Take TGCAATGTTG: the switch fluorescence ratio is 1.04 ± 0.047. As to TGCACAATCG, the switch fluorescence ratio is 1.01 ± 0.1.

Turning to TGCACCGGGG, the switch fluorescence ratio was found to be 1.02 ± 0.016. Under TGCACGTTGC stands 1.02 ± 0.03. For the sequence TGCAGAGGAA, the switch fluorescence ratio stood at 1.03 ± 0.018.

On to TGCAGCATCA, for which the switch fluorescence ratio is 1.11 ± 0.012.

For the sequence TGCAGCTGGA, the switch fluorescence ratio was 0.977 ± 0.022. With TGCAGGAAAC the figure was 1.05 ± 0.036. Regarding TGCAGGAGGG, the switch fluorescence ratio worked out at 0.972 ± 0.022. With TGCAGGATAT the figure was 1.61 ± 0.57; with TGCAGGGACT, 1.005 ± 0.0081; with TGCAGGGATG, 0.986 ± 0.041. Consider TGCAGGGCGC, for which the switch fluorescence ratio worked out at 1.04 ± 0.028. Regarding TGCAGGGCGG, the switch fluorescence ratio was 0.9806 ± 0.0017. With TGCAGGGTGC the figure was 1.04 ± 0.016. As for TGCAGGTCTT, the switch fluorescence ratio is 1 ± 0.052. Under TGCAGTAAGG stands 0.97794 ± 0.00081; under TGCAGTAATA, 1.53 ± 0.13. In the case of TGCATCATAA, the switch fluorescence ratio came to 1.01 ± 0.024. Under TGCATGTTGG stands 0.9937 ± 0.0017. Under TGCATTCATG stands 0.996 ± 0.029. TGCATTTAAT: the switch fluorescence ratio was 1.01 ± 0.027.

For the sequence TGCATTTACT, the switch fluorescence ratio worked out at 1.133 ± 0.0035. With TGCATTTGGA, the switch fluorescence ratio came to 0.978 ± 0.015. For the sequence TGCATTTTTG, the switch fluorescence ratio is 1.06 ± 0.053.

TGCCAATATC: the switch fluorescence ratio is 1.7 ± 0.08. As to TGCCAATATG, the switch fluorescence ratio amounted to 1.06 ± 0.014. In the case of TGCCATGTTT, the switch fluorescence ratio was 0.966 ± 0.014.

TGCCCCGATA: the switch fluorescence ratio came to 2.66 ± 2.3. For the sequence TGCCCGCCGT, the switch fluorescence ratio was found to be 1.03 ± 0.067. With TGCCCTTTTT the figure was 1.01 ± 0.095; with TGCCGATCAG, 0.993 ± 0.05; with TGCCGCAAAA, 1.82 ± 0.85. With TGCCGGGGGC the figure was 1.04 ± 0.025; with TGCCGGGGTT, 1.1 ± 0.2; with TGCCGGTAAA, 1.01 ± 0.051.

With TGCCTAACTT, the switch fluorescence ratio is 1.019 ± 0.0066.

Regarding TGCCTAAGAT, the switch fluorescence ratio amounted to 1 ± 0.021. Under TGCCTCTTTT stands 0.9886 ± 0.006.

On to TGCCTTATGG, for which the switch fluorescence ratio was found to be 0.983 ± 0.045. Under TGCCTTATTT stands 0.9999 ± 0.0049; under TGCCTTGCTT, 1.01 ± 0.023; under TGCCTTTTTT, 1 ± 0.016. With TGCGAAACTT the figure was 1.07 ± 0.011; with TGCGAATTCG, 0.996 ± 0.037; with TGCGACCATT, 1.03 ± 0.04. Under TGCGAGATTT stands 1.01 ± 0.018. As for TGCGAGGATG, the switch fluorescence ratio worked out at 1 ± 0.0028. Regarding TGCGAGGGGA, the switch fluorescence ratio came to 1.01 ± 0.032. Under TGCGAGGTCA stands 1.03 ± 0.022.

Source of the values: the supplement of paper PMC10126150.
